Experiments:
[1] = biological target: T1, human IL-23 (human, UniProt P29460 23-328); assay: equilibrium binding ELISA on plates coated with human IL-23; potency against reference material; storage at 25H (25 C/60% RH), 12 months (second Binding ELISA row)
T1 construct: also called human IL-23 cytokine; human IL-23 protein
T1 sequence 1: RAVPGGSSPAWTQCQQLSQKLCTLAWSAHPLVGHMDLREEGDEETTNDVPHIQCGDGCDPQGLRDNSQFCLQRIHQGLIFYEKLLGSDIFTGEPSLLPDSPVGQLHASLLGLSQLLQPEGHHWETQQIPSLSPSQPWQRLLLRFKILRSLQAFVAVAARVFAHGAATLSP
T1 sequence 2: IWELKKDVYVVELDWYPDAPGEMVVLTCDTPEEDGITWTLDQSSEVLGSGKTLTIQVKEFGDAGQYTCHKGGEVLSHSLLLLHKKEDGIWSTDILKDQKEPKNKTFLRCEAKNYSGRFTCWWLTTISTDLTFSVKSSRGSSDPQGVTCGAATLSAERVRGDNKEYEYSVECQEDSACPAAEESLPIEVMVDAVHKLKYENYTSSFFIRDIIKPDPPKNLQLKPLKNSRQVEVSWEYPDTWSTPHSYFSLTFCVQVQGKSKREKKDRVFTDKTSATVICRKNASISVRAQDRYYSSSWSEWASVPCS
Experimental: (§1) The affinity of hum13B8-b in the formulations of the present invention for human IL-23 is assessed in an equilibrium binding ELISA, where serial dilutions of reference material and test samples are applied to assay plates coated with human IL-23 cytokine. This assay may be used, for example, to assess retention of biological activity in various potential therapeutic formulations. Relative potency of the test sample is assessed by comparison of the dose response curve of the test sample to the dose response curve of reference material and calculated as percent of reference.
(§2) ELISAs are performed by methods well known in the art. Briefly, serial dilutions of hum13B8-b in a formulation of the present invention are added to wells of a microtiter plate that had been previously coated with human IL-23 protein and then blocked. After an incubation period, wells are washed and a peroxidase-conjugated goat anti-human IgG (Fc) detection antibody reagent is added. Wells are again washed, and a chemiluminescent peroxidase substrate is added. Signal is read out by chemiluminescence. […] Relative biological potency is calculated by comparing results obtained with test samples with a standard curve based on signal levels obtained with a reference sample. […]

[2] = biological target: T1, human IL-23; assay: equilibrium binding ELISA on plates coated with human IL-23; potency against reference material; storage at 5 C, 18 months (second Binding ELISA row)
Experimental: as §1, §2

[3] = biological target: T1, human IL-23; assay: equilibrium binding ELISA on plates coated with human IL-23; potency against reference material; storage at 5 C, 24 months (second Binding ELISA row)
Experimental: as §1, §2

[4] = biological target: T1, human IL-23; assay: equilibrium binding ELISA on plates coated with human IL-23; potency against reference material; storage at 25H (25 C/60% RH), 6 months
Experimental: as §1, §2

[5] = biological target: T1, human IL-23; assay: equilibrium binding ELISA on plates coated with human IL-23; potency against reference material; storage condition 25H table, initial
Experimental: as §1, §2

[6] = biological target: T1, human IL-23; assay: equilibrium binding ELISA on plates coated with human IL-23; potency against reference material; storage at 5 C, 6 months
Experimental: as §1, §2

[7] = biological target: T1, human IL-23; assay: equilibrium binding ELISA on plates coated with human IL-23; potency against reference material; storage condition RH4 table, initial
Experimental: as §1, §2

[8] = biological target: T1, human IL-23; assay: equilibrium binding ELISA on plates coated with human IL-23; potency against reference material; storage at 5 C, 12 months (second Binding ELISA row)
Experimental: as §1, §2

[9] = biological target: T1, human IL-23; assay: equilibrium binding ELISA on plates coated with human IL-23; potency against reference material; storage at RH4 (40 C/75% RH), 6 months
Experimental: as §1, §2

[10] = biological target: T1, human IL-23; assay: equilibrium binding ELISA on plates coated with human IL-23; potency against reference material; storage at 5 C, initial
Experimental: as §1, §2

- Binding ELISA Potency relative to control [%] [1]: 105%
- Binding ELISA Potency relative to control [%] [2]: 100%
- Binding ELISA Potency relative to control [%] [3]: 103%
- Binding ELISA Potency relative to control [%] [4]: 99%
- Binding ELISA Potency relative to control [%] [5]: 112%
- Binding ELISA Potency relative to control [%] [6]: 96%
- Binding ELISA Potency relative to control [%] [7]: 112%
- Binding ELISA Potency relative to control [%] [8]: 98%
- Binding ELISA Potency relative to control [%] [9]: 104%
- Binding ELISA Potency relative to control [%] [10]: 112%
B1: humanized anti-IL-23p19 antibody 13B8-b (antibody, human IgG1, kappa, V domains shown)
VH: QVQLVQSGAEVKKPGASVKVSCKASGYIFITYWMTWVRQAPGQGLEWMGQIFPASGSADYNEKFEGRVTMTTDTSTSTAYMELRSLRSDDTAVYYCARGGGGFAYWGQGTLVTVSS
VL: DIQMTQSPSSLSASVGDRVTITCRTSENIYSYLAWYQQKPGKAPKLLIYNAKTLAEGVPSRFSGSGSGTDFTLTISSLQPEDFATYYCQHHYGIPFTFGQGTKVEIKR
notes: Made in CHO cells; Tested as a stored formulation (10 mM histidine pH 6.0, 7% sucrose, 0.05% polysorbate 80, about 100 mg/ml); also called hum13B8-b; anti-IL-23p19 mAb hum13B8-b

— patent publication US20240239884A1 (Merck Sharp & Dohme, published 2024)
